Experimental data as given in publication PMC5469476.

How the values were obtained:
[1] = biological target: human glucagon-like peptide-1 receptor (GLP1R) with C-terminal 1D4 epitope, purified in nanodiscs (GLP1R-ND) (human) (UniProt P43220)
[2] = biological target: human glucagon-like peptide-1 receptor (GLP1R) with C-terminal 1D4 epitope, purified in nanodiscs (GLP1R-ND) (human) (UniProt P43220); experiment: fluorescence polarisation; fluorescence anisotropy; 50 nM FAM-labeled peptide with 0 to 400 nM freshly prepared GLP1R-ND (or empty-ND); 20 mM Tris-HCl pH 7.4, 150 mM NaCl, EDTA, 3 mM MgCl2; room temperature; single-site binding model; three independent receptor preparations
[3] = biological target: human glucagon-like peptide-1 receptor (GLP1R) with C-terminal 1D4 epitope, purified in nanodiscs (GLP1R-ND) (human) (UniProt P43220); experiment: fluorescence polarisation

Chain of UniProt P43220 (P43220 24-463): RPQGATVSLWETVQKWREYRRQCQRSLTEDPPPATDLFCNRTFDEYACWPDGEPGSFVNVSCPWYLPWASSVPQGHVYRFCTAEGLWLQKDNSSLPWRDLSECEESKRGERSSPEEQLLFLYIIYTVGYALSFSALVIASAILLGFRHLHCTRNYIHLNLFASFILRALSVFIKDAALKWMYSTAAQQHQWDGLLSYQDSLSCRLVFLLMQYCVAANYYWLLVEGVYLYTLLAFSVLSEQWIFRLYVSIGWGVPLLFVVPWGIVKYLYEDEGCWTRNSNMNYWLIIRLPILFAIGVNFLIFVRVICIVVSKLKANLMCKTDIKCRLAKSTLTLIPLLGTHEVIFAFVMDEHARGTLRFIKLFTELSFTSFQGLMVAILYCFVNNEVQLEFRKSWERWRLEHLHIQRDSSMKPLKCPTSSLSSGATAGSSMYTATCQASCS

Substance | EC50 of cell-based cAMP assay (receptor on cells, details in S1 Supporting Information) [1] | Kd [2] | Kd [3]
FAM-labeled GLP-1-(7-37) (E21K, 5(6)-carboxyfluorescein on the lysine) (peptide) | 1.18 nM | 284 nM | –
FAM-labeled exendin-4 (L21K, 5(6)-carboxyfluorescein on the lysine) (peptide) | – | – | 178 nM
